Data reported in patent CN105585631A (BEIJING HEALTH GUARD BIOTECHNOLOGY CO LTD, dated 2016).

Columns and labels:
[1] = biological target: HPV-16 L1 VLP (重组人乳头瘤病毒-16型VLP蛋白, 未变性) (人乳头瘤病毒16型 (HPV16)) (UniProt P03101); assay: indirect ELISA, HPV16 VLP 200 ng/well coated, antibody at 1, 0.2 and 0.04 ug/ml
[2] = biological target: HPV-16 L1 VLP (重组人乳头瘤病毒-16型VLP蛋白, 未变性) (人乳头瘤病毒16型 (HPV16)) (UniProt P03101); assay: indirect ELISA, native VLP 2 ug/ml coated, antibody 0.3 ug/ml
[3] = biological target: HPV-16 L1 VLP (重组人乳头瘤病毒-16型VLP蛋白, 未变性) (人乳头瘤病毒16型 (HPV16)) (UniProt P03101); assay: competition ELISA on coated HPV16 VLP; HRP-labelled antibody 0.3 ug/ml; competitor: WHO international standard 05/134 at 0.5 IU/ml
HPV-58 L1 VLP = biological target: T1, HPV-58 L1 VLP (HPV58, UniProt P26535 27-524); assay: indirect ELISA, VLP 2 ug/ml coated
T1 construct: also called HPV58VLP
T1 sequence: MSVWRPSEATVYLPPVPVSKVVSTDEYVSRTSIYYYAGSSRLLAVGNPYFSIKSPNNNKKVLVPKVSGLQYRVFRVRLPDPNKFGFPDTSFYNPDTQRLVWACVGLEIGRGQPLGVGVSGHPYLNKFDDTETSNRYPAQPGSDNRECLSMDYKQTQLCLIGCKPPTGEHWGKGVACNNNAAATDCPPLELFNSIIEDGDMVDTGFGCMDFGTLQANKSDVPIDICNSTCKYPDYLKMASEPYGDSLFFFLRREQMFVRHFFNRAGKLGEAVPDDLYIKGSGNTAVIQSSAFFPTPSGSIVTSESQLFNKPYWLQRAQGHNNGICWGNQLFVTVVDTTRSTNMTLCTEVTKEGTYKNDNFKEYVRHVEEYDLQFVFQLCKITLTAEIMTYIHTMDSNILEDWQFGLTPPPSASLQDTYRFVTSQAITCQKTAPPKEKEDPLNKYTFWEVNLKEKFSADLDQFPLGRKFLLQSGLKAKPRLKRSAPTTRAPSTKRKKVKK

HPV-18 L1 VLP = biological target: T2, HPV-18 L1 VLP (HPV18, UniProt P06794 62-568); assay: indirect ELISA, VLP 2 ug/ml coated
T2 construct: also called HPV18 VLP
T2 sequence: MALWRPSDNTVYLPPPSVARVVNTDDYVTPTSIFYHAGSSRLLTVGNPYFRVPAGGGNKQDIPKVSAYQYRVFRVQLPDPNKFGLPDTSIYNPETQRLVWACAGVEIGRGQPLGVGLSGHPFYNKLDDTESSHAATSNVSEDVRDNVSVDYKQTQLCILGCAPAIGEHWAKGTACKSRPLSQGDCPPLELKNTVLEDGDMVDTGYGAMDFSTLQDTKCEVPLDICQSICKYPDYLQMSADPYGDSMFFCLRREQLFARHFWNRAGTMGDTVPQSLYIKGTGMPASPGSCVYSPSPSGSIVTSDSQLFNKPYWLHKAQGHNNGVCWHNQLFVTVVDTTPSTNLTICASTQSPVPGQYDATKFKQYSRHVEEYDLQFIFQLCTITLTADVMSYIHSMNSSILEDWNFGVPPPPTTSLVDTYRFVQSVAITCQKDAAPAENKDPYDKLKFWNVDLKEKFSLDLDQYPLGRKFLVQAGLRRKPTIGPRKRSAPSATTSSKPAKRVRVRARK

HPV45 VLP = biological target: T3, HPV45 VLP (HPV45, UniProt P36741 30-539); assay: SPR, BIACORE 3000
T3 sequence: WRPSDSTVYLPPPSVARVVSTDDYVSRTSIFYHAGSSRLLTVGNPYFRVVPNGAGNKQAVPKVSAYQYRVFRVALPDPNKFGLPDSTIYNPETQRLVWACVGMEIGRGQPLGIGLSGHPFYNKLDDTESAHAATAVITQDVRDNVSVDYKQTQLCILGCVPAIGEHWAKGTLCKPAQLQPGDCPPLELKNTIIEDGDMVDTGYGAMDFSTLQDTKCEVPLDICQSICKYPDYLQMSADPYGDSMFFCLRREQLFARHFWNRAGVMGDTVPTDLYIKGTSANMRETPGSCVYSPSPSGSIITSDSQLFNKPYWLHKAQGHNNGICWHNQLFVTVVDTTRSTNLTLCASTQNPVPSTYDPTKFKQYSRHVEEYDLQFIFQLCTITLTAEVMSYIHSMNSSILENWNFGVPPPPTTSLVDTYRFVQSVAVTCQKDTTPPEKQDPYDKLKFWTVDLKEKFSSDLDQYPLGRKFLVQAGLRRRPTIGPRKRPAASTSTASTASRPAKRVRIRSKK

HPV33 VLP = biological target: T4, HPV33 VLP (HPV33, UniProt P06416 1-499); assay: SPR, BIACORE 3000
T4 sequence: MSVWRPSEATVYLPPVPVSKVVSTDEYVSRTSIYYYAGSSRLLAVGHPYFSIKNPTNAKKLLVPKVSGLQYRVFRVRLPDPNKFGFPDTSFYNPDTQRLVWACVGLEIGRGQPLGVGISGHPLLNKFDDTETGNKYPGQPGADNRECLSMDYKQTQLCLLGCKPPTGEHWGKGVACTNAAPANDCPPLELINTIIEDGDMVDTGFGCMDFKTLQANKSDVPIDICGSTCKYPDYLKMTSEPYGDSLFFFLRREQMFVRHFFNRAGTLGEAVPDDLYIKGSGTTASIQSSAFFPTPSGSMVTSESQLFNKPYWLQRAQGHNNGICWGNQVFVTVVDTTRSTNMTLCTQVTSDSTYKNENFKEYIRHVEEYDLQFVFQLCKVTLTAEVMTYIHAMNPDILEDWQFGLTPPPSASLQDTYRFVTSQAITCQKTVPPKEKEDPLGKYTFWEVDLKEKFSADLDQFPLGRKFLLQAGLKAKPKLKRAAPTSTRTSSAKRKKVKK

HPV11 VLP = biological target: T5, HPV11 VLP (HPV11, UniProt P04012 1-501); assay: SPR, BIACORE 3000
T5 sequence: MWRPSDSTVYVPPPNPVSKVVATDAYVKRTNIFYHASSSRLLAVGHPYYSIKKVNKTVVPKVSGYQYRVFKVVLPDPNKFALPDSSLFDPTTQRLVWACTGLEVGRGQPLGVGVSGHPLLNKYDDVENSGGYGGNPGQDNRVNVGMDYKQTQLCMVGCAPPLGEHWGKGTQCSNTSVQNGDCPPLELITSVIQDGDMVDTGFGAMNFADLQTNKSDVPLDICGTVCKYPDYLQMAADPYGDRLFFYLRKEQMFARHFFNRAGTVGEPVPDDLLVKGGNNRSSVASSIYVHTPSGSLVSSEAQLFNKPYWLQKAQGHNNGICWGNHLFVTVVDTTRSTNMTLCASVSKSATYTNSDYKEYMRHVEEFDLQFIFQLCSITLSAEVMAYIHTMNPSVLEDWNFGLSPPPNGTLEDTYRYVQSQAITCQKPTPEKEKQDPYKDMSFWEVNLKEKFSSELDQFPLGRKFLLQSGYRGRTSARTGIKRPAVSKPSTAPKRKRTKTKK

HPV31 VLP = biological target: T6, HPV31 VLP (HPV31, UniProt P17388 1-504); assay: SPR, BIACORE 3000
T6 sequence: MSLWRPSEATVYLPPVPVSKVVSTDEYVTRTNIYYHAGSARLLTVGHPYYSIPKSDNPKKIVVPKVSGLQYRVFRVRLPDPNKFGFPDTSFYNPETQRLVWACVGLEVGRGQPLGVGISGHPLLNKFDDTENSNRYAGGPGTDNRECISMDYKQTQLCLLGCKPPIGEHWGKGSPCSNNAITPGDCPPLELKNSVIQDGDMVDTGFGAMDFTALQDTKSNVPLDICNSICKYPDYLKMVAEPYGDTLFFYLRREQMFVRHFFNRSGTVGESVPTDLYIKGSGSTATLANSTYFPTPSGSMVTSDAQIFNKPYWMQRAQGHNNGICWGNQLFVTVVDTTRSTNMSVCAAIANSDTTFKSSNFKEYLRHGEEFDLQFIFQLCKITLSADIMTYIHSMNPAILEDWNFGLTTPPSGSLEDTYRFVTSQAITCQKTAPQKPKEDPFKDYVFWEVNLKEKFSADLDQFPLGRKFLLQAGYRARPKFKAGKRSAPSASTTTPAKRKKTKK

HPV6 VLP = biological target: T7, HPV6 VLP (HPV6, UniProt P69899 1-500); assay: SPR, BIACORE 3000
T7 sequence: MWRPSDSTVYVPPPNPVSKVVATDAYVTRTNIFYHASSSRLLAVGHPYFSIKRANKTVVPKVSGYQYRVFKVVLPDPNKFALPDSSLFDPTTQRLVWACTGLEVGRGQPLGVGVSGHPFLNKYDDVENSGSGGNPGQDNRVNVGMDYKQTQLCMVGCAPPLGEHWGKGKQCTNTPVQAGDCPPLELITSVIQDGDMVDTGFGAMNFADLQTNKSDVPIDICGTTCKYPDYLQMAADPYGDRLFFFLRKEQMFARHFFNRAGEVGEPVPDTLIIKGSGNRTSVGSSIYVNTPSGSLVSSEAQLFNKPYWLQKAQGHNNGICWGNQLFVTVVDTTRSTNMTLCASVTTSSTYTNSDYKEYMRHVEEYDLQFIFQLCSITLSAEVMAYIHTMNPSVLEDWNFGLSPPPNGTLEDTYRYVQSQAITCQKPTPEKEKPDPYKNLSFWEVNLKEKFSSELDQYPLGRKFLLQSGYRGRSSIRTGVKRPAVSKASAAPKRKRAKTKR

UniProt P03101, sequence (P03101 whole entry): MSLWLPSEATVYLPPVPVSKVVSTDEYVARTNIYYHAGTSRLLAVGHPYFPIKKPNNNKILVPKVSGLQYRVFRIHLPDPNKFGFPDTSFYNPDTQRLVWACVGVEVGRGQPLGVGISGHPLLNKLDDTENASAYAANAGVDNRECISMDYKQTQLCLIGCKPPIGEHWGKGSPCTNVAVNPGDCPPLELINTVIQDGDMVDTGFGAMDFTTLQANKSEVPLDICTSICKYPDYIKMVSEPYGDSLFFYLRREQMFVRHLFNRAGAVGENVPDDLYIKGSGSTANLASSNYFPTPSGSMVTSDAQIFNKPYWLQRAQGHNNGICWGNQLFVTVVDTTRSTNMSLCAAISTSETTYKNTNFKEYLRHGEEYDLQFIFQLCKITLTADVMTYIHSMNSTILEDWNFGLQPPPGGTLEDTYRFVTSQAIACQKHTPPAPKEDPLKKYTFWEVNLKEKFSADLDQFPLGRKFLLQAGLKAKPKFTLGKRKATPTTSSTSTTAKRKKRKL

B1: 单克隆抗体4G12 (杂交瘤细胞株4G12, CGMCC 11298) (antibody, V domains shown)
VH: VKLQQSGAELVKPGASVKLSCTASGFNIKDTYMHWVKQRPEQGLEWIGRIDPANGNPQYDPKFQGKATITADTSSNTACLQLSSLTSEDTAVFYCAREVGGYYFDYWGQGTTVTVSS
VL: DIQLTRSPAIMSASPGEKVTITCSASSSVSYMHWFQQKPGTSPKLWIYSTSNLASGVPARFSGSGSGTSYSLTISRMEAEDAATYYCQQRSSYPWTFGGGTKLEI
For B1, the 信号强度 (ELISA) [1] was greater than 1, the OD450 [2] was greater than 1 OD450 and the 抑制率 [3] was greater than 40%.

B2: 单克隆抗体5A6 (杂交瘤细胞株5A6, CGMCC 11299) (antibody, V domains shown)
VH: VKLQQSGAELVKPGASVKLSCTASGFNIKDTYMHWVKQRPEQGLEWIGRIDPANGNTEYDPNFQGKATITSDTSSNTAYLHLSSLTSEDTAVYYCAREVGGYYFDYWGQGTTVTVSS
VL: DIQLTQSPSSMSASLGDRITITCQATQDIVKNLNWYQQKPGKPPSFLIYYATELAEGVPSRFSGSGSGSDYSLTISNLESEDFADYYCLQFYEFPLTFGAGTKLEI
notes: Capture antibody of the sandwich kit; also called 克隆5A6
B2 was tested, and the binding result (HPV-58 L1 VLP) was “no binding (tested: 0.3μg/ml)”, the binding result (HPV-18 L1 VLP) was “no binding (tested: 0.3μg/ml)” and the 信号强度 (ELISA) [1] was greater than 1. For the same binder, the OD450 [2] was greater than 1 OD450, the 抑制率 [3] was greater than 40% and the binding result (HPV45 VLP) was “no binding (tested: antibody up to 20nmol/L)”. B2: no binding (tested: antibody up to 20nmol/L) (HPV33 VLP); no binding (tested: antibody up to 20nmol/L) (HPV11 VLP); no binding (tested: antibody up to 20nmol/L) (HPV31 VLP). B2: no binding (tested: antibody up to 20nmol/L) (HPV6 VLP).
